Laboratory results as given in US20100048462A1, “TRUNCATED PTH PEPTIDES WITH A CYCLIC CONFORMATION” (Zealand Pharma A/S, priority 2006, published 2010).
Bridge positions count the residues as written; N and C are the ends. Square brackets hold non-standard residues; d marks the D form. Peptide text beside a SMILES is read from it. hArg = N=C(N)NCCCC[C@H](N)C(=O)O; Ac5c = NC1(C(=O)O)CCCC1; Abu = CC[C@H](N)C(=O)O; Aib = CC(C)(N)C(=O)O

How the values were obtained:
CYP2D6 = CYP2D6 (Homo sapiens, UniProt P10635); assay: CYP2D6 inhibition in pooled human liver microsomes; assay type: in vitro ADME; parameters: Pooled human liver microsomes (HLM, final concentration 0.05 mg protein/mL); tissue BD Biosciences 452161; host or cells: pooled human liver microsomes; conditions: 10 μM compound, dextrorphan formation rate
Description: Stock solutions of the test compounds (1 mM) were prepared in 50% isopropanol or 20% DMSO. Pooled human liver microsomes (HLM, final concentration 0.05 mg protein/mL) were mixed with phosphate buffer (0.1 M potassium phosphate, pH 7.4), CYP2D6 substrate (dextrometrorphan, 5 μM final concentration) and test compound (10 μM), quinidine (0.5 μM) or vehicle (0.2% DMSO or 0.5% isopropanol). The mixture was preincubated for 5 min at 37° C. prior to initiation of the reaction addition of a NADPH regenerating mixture (Final concentration: 1.25 mM NADP^+, 3.3 mM Glucose-6-phosphate, 3.3 mM MgCL2 and 0.4 U/mL glucose-6-phosphat dehydrogenase). After 5 minutes the reaction was stopped by addition of 0.25 volume stop reagent (94% acetonitrile, 6% acetic acid). Each experiment was performed in duplicate or triplicate.
The quantification of CYP2D6 product (dextrorphan) was performed by LC/MS/MS. After centrifugation for 5 min at 10.000 g, 40 μL of the supernatant was injected onto a C8 RP-HPLC column (XterraMS, C8, […], 50×2.1 mm). Dextrorphan was eluted by a linear gradient from 0 to 90% acetonitrile in 0.1% formic acid over 4 min using a flow rate of 0.15 ml/min. The concentration of dextrorphan in the reaction mixture was estimated from the peak area of the MS/MS transition (m/z 258.1>199) using an external calibration curve (Table 8).
The CYP2D6 activity in HLM was calculated as the metabolite formation rate: […]
Where, v is the formation rate, [metabolite] is the detected concentration of dextrorphan (pmol/mL) at the time (t, min) and [protein] is the protein concentration (mg/mL) in the reaction mixture. The influence of the test compounds on the CYP2D6 activity was calculated as % of the activity measured when incubated with the vehicle. The effect of CYP2D6 inhibitor (quinidine) was included as inhibition control within each batch analysis. A reduction in CYP2D6 activity to less than 70% of the vehicle control was considered significant.

Saos-2 PTH1R [1] = target: T1, Saos-2 PTH1R (Homo sapiens, UniProt Q03431); assay: cAMP-efficacy assay in Saos-2 cells; assay type: cell-based
T1 construct: endogenous in cells; host or cells: Saos-2
T1 sequence (Q03431 27-593): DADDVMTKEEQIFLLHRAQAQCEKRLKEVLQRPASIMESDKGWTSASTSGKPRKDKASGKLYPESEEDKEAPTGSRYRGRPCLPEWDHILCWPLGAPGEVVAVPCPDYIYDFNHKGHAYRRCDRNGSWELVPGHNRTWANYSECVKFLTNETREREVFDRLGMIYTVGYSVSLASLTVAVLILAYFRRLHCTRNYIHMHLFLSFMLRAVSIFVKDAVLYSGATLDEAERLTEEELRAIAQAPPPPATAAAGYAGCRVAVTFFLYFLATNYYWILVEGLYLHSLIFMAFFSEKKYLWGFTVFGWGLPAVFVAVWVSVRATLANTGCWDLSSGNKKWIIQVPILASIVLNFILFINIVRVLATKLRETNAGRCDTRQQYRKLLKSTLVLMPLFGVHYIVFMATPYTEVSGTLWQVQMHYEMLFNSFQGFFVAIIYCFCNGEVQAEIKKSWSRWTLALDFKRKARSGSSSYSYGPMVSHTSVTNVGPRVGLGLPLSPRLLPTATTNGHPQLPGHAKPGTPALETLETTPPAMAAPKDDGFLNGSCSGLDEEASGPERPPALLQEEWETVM
Procedure, shortened: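 Saos-2 cells, grown two days after seeding at 50,000 cells/well, were exposed to peptide for 15 min at 37 °C in Tyrode's buffer with 0.1% BSA and 100 μM IBMX. After stopping with cold HCl, cAMP was measured by radioimmunoassay FlashPlate. EC50, pEC50, Hill slope and Emax came from a four-parameter sigmoidal fit.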

Saos-2 PTH1R [2] = target: Saos-2 PTH1R (UniProt Q03431); assay: cell-based or functional assay
[3] = cAMP, 100 μM IBMX, 37° C. 15 min, suffix of label = salt tested

Chain of CYP2D6 (P10635 whole entry): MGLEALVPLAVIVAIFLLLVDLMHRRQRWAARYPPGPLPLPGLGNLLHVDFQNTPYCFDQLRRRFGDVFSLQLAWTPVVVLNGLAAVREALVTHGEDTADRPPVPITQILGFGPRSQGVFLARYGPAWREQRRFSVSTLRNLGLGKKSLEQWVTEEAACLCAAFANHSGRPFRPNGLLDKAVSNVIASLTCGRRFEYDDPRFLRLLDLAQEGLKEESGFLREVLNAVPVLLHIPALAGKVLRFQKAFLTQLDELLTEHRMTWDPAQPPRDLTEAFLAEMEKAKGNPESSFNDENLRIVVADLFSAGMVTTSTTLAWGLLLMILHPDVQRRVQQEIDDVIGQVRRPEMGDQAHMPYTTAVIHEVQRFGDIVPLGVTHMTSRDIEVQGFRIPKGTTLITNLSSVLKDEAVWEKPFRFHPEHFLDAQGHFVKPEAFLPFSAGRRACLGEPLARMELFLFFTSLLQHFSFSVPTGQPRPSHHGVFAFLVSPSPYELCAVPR

Molecule: CC[C@H](C)[C@H](NC(=O)[C@H](CCC(=O)O)NC(=O)C(C)(C)NC(=O)[C@@H](NC(=O)C1(N)CCCC1)C(C)C)C(=O)N[C@@H](CCC(N)=O)C(=O)N[C@@H](CC(C)C)C(=O)N[C@@H](CCSC)C(=O)N[C@@H](Cc1c[nH]cn1)C(=O)N[C@@H](CC(N)=O)C(=O)N[C@@H](CC(C)C)C(=O)NCC(=O)N[C@@H](CCCCN)C(=O)N[C@@H](Cc1c[nH]cn1)C(=O)N[C@@H](CC(C)C)C(=O)N[C@@H](CC(N)=O)C(=O)N[C@@H](CC(=O)O)C(N)=O [SEQ ID NO: 1] (H-[Ac5c]V[Aib]EIQLMHNLGKHLND-NH2)
- CYP2D6 activity (% of vehicle) (CYP2D6): 57 % of vehicle
- pEC50 ± SEM (Saos-2 PTH1R [1]; [3]): inactive

Molecule: CC[C@H](C)[C@H](NC(=O)[C@H](CCC(=O)O)NC(=O)C(C)(C)NC(=O)[C@@H](NC(=O)C1(N)CCCC1)C(C)C)C(=O)N[C@@H](CCC(N)=O)C(=O)N[C@@H](CC(C)C)C(=O)N[C@@H](CCSC)C(=O)N[C@@H](Cc1c[nH]cn1)C(=O)N[C@@H](CCC(N)=O)C(=O)N[C@@H](CCCCNC(=N)N)C(=O)N[C@@H](C)C(=O)N[C@H]1CCCCNC(=O)C[C@@H](C(=O)O)NC(=O)[C@H](CC(N)=O)NC(=O)[C@H](CC(C)C)NC(=O)[C@H](Cc2c[nH]c3ccccc23)NC1=O [SEQ ID NO: 4, H-Ac5c-Val-Aib-Glu-Ile-Gln-Leu-Met-His-Gln-Har-Ala-Lys( )-Trp-Leu-Asn-Asp( )-OH] (H-[Ac5c]V[Aib]EIQLMHQ[hArg]AKWLND-OH; lactam 13-17)
- CYP2D6 activity (% of vehicle) (CYP2D6): 89 % of vehicle
- potency compared to linear / non-stabilized counterparts, in words (Saos-2 PTH1R [1]; cAMP): clearly higher potency
- EC50 (Saos-2 PTH1R [1]; [3]): 38 nM
- potency compared to linear / non-stabilized counterparts, in words (Saos-2 PTH1R [1]; cAMP, listed as 4): increased potencies
- potency compared to linear / non-stabilized counterparts, in words (Saos-2 PTH1R [1]; cAMP, listed as SEQ ID NO:4): higher potency
- Emax ± SEM (Saos-2 PTH1R [1]; relative effect to the control (SEQ ID NO: 32)): 1.11 ± 0.03

B1: H-Aib-Val-Ac5c-Glu-Ile-Gln-Leu-Leu-His-Gln-Har-Ala-Lys( )-Trp-Leu-Asn-Asp( )-NH2 (peptide)
chain: H-[Aib]V[Ac5c]EIQLLHQ[hArg]AKWLND-NH2
modifications: lactam 13-17
SMILES: CC[C@H](C)[C@H](NC(=O)[C@H](CCC(=O)O)NC(=O)C1(NC(=O)[C@@H](NC(=O)C(C)(C)N)C(C)C)CCCC1)C(=O)N[C@@H](CCC(N)=O)C(=O)N[C@@H](CC(C)C)C(=O)N[C@@H](CC(C)C)C(=O)N[C@@H](Cc1c[nH]cn1)C(=O)N[C@@H](CCC(N)=O)C(=O)N[C@@H](CCCCNC(=N)N)C(=O)N[C@@H](C)C(=O)N[C@H]1CCCCNC(=O)C[C@@H](C(N)=O)NC(=O)[C@H](CC(N)=O)NC(=O)[C@H](CC(C)C)NC(=O)[C@H](Cc2c[nH]c3ccccc23)NC1=O
- Emax, cAMP efficacy assay in Saos-2 cells (13T, trifluoroacetate salt) (relative to control (SEQ ID NO: 32)) (Saos-2 PTH1R [2]): 0.96
- pEC50, cAMP efficacy assay in Saos-2 cells (13T, trifluoroacetate salt) (Saos-2 PTH1R [2]): 7.27 -log(M)

B2: H-Ac5c-Val-Abu-Glu-Ile-Gln-Leu-Leu-His-Gln-Har-Ala-Lys( )-Trp-Leu-Asn-Asp( )-NH2 (peptide)
chain: H-[Ac5c]V[Abu]EIQLLHQ[hArg]AKWLND-NH2
modifications: lactam 13-17
SMILES: CC[C@H](NC(=O)[C@@H](NC(=O)C1(N)CCCC1)C(C)C)C(=O)N[C@@H](CCC(=O)O)C(=O)N[C@H](C(=O)N[C@@H](CCC(N)=O)C(=O)N[C@@H](CC(C)C)C(=O)N[C@@H](CC(C)C)C(=O)N[C@@H](Cc1c[nH]cn1)C(=O)N[C@@H](CCC(N)=O)C(=O)N[C@@H](CCCCNC(=N)N)C(=O)N[C@@H](C)C(=O)N[C@H]1CCCCNC(=O)C[C@@H](C(N)=O)NC(=O)[C@H](CC(N)=O)NC(=O)[C@H](CC(C)C)NC(=O)[C@H](Cc2c[nH]c3ccccc23)NC1=O)[C@@H](C)CC
- Emax, cAMP efficacy assay in Saos-2 cells (15T, trifluoroacetate salt) (relative to control (SEQ ID NO: 32)) (Saos-2 PTH1R [2]): 1.04
- pEC50, cAMP efficacy assay in Saos-2 cells (15T, trifluoroacetate salt) (Saos-2 PTH1R [2]): 7.22 -log(M)

B3: H-Ac5c-Val-Aib-Glu-Ile-Gln-Leu-Met-His-Gln-Har-Ala-Lys( )-Trp-Leu-Asp-Asp( )-NH2 (peptide)
chain: H-[Ac5c]V[Aib]EIQLMHQ[hArg]AKWLDD-NH2
modifications: lactam 13-17
SMILES: CC[C@H](C)[C@H](NC(=O)[C@H](CCC(=O)O)NC(=O)C(C)(C)NC(=O)[C@@H](NC(=O)C1(N)CCCC1)C(C)C)C(=O)N[C@@H](CCC(N)=O)C(=O)N[C@@H](CC(C)C)C(=O)N[C@@H](CCSC)C(=O)N[C@@H](Cc1c[nH]cn1)C(=O)N[C@@H](CCC(N)=O)C(=O)N[C@@H](CCCCNC(=N)N)C(=O)N[C@@H](C)C(=O)N[C@H]1CCCCNC(=O)C[C@@H](C(N)=O)NC(=O)[C@H](CC(=O)O)NC(=O)[C@H](CC(C)C)NC(=O)[C@H](Cc2c[nH]c3ccccc23)NC1=O
- Emax, cAMP efficacy assay in Saos-2 cells (23T, trifluoroacetate salt) (relative to control (SEQ ID NO: 32)) (Saos-2 PTH1R [2]): 1.16
- pEC50, cAMP efficacy assay in Saos-2 cells (23T, trifluoroacetate salt) (Saos-2 PTH1R [2]): 7.48 -log(M)

B4: H-Ac5c-Val-Aib-Glu-Ile-Gln-Leu-Met-His-Gln-Arg-Ala-Lys( )-Trp-Leu-Asn-Asp( )-NH2 (peptide)
chain: H-[Ac5c]V[Aib]EIQLMHQRAKWLND-NH2
modifications: lactam 13-17
SMILES: CC[C@H](C)[C@H](NC(=O)[C@H](CCC(=O)O)NC(=O)C(C)(C)NC(=O)[C@@H](NC(=O)C1(N)CCCC1)C(C)C)C(=O)N[C@@H](CCC(N)=O)C(=O)N[C@@H](CC(C)C)C(=O)N[C@@H](CCSC)C(=O)N[C@@H](Cc1c[nH]cn1)C(=O)N[C@@H](CCC(N)=O)C(=O)N[C@@H](CCCNC(=N)N)C(=O)N[C@@H](C)C(=O)N[C@H]1CCCCNC(=O)C[C@@H](C(N)=O)NC(=O)[C@H](CC(N)=O)NC(=O)[C@H](CC(C)C)NC(=O)[C@H](Cc2c[nH]c3ccccc23)NC1=O
- Emax, cAMP efficacy assay in Saos-2 cells (25T, trifluoroacetate salt) (relative to control (SEQ ID NO: 32)) (Saos-2 PTH1R [2]): 1.04
- pEC50, cAMP efficacy assay in Saos-2 cells (25T, trifluoroacetate salt) (Saos-2 PTH1R [2]): 8.05 -log(M)

B5: H-Ac5c-Val-Aib-Glu-Ile-Gln-Phe-Leu-His-Gln-Har-Ala-Lys( )-Trp-Leu-Asn-Asp( )-NH2 (peptide)
chain: H-[Ac5c]V[Aib]EIQFLHQ[hArg]AKWLND-NH2
modifications: lactam 13-17
SMILES: CC[C@H](C)[C@H](NC(=O)[C@H](CCC(=O)O)NC(=O)C(C)(C)NC(=O)[C@@H](NC(=O)C1(N)CCCC1)C(C)C)C(=O)N[C@@H](CCC(N)=O)C(=O)N[C@@H](Cc1ccccc1)C(=O)N[C@@H](CC(C)C)C(=O)N[C@@H](Cc1c[nH]cn1)C(=O)N[C@@H](CCC(N)=O)C(=O)N[C@@H](CCCCNC(=N)N)C(=O)N[C@@H](C)C(=O)N[C@H]1CCCCNC(=O)C[C@@H](C(N)=O)NC(=O)[C@H](CC(N)=O)NC(=O)[C@H](CC(C)C)NC(=O)[C@H](Cc2c[nH]c3ccccc23)NC1=O
- Emax, cAMP efficacy assay in Saos-2 cells (27T, trifluoroacetate salt) (relative to control (SEQ ID NO: 32)) (Saos-2 PTH1R [2]): 0.92
- pEC50, cAMP efficacy assay in Saos-2 cells (27T, trifluoroacetate salt) (Saos-2 PTH1R [2]): 7.91 -log(M)

B6: H-Ac5c-Val-Aib-Glu-Ile-Glu-Leu-Leu-His-Gln-Har-Ala-Lys( )-Trp-Leu-Asn-Asp( )-NH2 (peptide)
chain: H-[Ac5c]V[Aib]EIELLHQ[hArg]AKWLND-NH2
modifications: lactam 13-17
SMILES: CC[C@H](C)[C@H](NC(=O)[C@H](CCC(=O)O)NC(=O)C(C)(C)NC(=O)[C@@H](NC(=O)C1(N)CCCC1)C(C)C)C(=O)N[C@@H](CCC(=O)O)C(=O)N[C@@H](CC(C)C)C(=O)N[C@@H](CC(C)C)C(=O)N[C@@H](Cc1c[nH]cn1)C(=O)N[C@@H](CCC(N)=O)C(=O)N[C@@H](CCCCNC(=N)N)C(=O)N[C@@H](C)C(=O)N[C@H]1CCCCNC(=O)C[C@@H](C(N)=O)NC(=O)[C@H](CC(N)=O)NC(=O)[C@H](CC(C)C)NC(=O)[C@H](Cc2c[nH]c3ccccc23)NC1=O
- Emax, cAMP efficacy assay in Saos-2 cells (29T, trifluoroacetate salt) (relative to control (SEQ ID NO: 32)) (Saos-2 PTH1R [2]): 1.27
- pEC50, cAMP efficacy assay in Saos-2 cells (29T, trifluoroacetate salt) (Saos-2 PTH1R [2]): 6.95 -log(M)
